# Results taken from PMC3816843.
# Read-outs that look alike come from different tables or passages of the source.
# T1: Factor XII (FXII, zymogen) (human, UniProt P00748 20-615)
# T1 sequence: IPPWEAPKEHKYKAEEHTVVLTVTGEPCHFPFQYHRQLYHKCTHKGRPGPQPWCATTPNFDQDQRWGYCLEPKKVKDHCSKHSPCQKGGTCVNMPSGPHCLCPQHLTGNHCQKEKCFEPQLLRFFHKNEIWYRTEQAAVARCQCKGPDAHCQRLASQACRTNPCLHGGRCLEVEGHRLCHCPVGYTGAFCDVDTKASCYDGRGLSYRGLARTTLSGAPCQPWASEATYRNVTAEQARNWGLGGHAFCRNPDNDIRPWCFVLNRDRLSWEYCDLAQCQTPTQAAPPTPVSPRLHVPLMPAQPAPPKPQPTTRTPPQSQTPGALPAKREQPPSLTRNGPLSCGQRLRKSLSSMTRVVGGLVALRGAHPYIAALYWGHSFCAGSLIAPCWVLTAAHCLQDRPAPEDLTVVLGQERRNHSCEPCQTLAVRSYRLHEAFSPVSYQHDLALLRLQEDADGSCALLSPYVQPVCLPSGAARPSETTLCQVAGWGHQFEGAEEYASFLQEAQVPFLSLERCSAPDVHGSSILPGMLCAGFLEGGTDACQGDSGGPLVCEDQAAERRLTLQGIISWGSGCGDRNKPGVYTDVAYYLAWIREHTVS
# T2: Factor XIIa (alpha-FXIIa) (UniProt P00748;P00748 20-372;373-615)
# T2 sequence 1: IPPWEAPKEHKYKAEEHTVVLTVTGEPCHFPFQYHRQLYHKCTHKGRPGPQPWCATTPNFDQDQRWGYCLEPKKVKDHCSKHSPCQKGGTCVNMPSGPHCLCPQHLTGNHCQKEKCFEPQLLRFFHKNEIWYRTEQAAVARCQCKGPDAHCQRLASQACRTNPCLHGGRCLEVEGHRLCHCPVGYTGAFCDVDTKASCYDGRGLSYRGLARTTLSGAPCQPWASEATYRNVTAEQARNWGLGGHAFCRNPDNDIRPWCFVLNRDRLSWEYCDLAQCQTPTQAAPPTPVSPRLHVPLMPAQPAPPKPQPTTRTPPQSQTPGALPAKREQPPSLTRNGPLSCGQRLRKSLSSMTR
# T2 sequence 2: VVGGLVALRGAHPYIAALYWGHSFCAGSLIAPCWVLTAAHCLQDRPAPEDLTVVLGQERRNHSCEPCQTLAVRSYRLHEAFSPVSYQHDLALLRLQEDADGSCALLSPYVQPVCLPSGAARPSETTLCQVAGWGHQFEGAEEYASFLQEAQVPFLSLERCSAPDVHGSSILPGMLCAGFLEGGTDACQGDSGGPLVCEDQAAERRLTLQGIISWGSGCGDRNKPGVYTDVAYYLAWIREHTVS
# B1: R4cXII-1 (XNA)
# RNA: GGGAGGACGAUGCGGCCAAAUCUCGGCUGCCAGCAGGUCACGAGUCGCAAGAUAACAGACGACUCGCUGAGGAUCCGAGA
# modifications: all C and U are 2'-fluoro; A and G ribo
# B2: scrambled control RNA (XNA)
# RNA: GGGGCAGCCGUGGACCGACUGCCGCAUGCCAUUGACAGUCCGAUGCCAGGC
# modifications: all C and U are 2'-fluoro; A and G ribo
# B3: R4cXII-1t (XNA)
# RNA: GGCUCGGCUGCCAGCAGGUCACGAGUCGCAGCGACUCGCUGAGGAUCCGAG
# modifications: all C and U are 2'-fluoro; A and G ribo
# Key:
# [1] = molecular target: T1, Factor XII (FXII, zymogen); experiment: double-filter nitrocellulose binding
# [2] = molecular target: T2, Factor XIIa (alpha-FXIIa); experiment: double-filter nitrocellulose binding
# [3] = molecular target: T1, Factor XII (FXII, zymogen); experiment: nitrocellulose filter binding
# [4] = molecular target: T2, Factor XIIa (alpha-FXIIa); experiment: nitrocellulose filter binding
# [5] = molecular target: T1, Factor XII (FXII, zymogen); experiment: double-filter nitrocellulose binding; remark: listed apart in the source
# [6] = molecular target: T2, Factor XIIa (alpha-FXIIa); experiment: double-filter nitrocellulose binding; remark: listed apart in the source
binder,measurement,setting,value
B1,Kd,[1],8.9 ± 1 nM
same,Kd,[2],0.5 ± 0.2 nM
B2,binding result,[3],no binding
same,binding result,[4],no binding
B3,Kd,[5],12.9 ± 2.06 nM
same,Kd,[6],0.4 ± 0.02 nM
